Values quoted from earlier work as cited in patent US6303637A, “Heterocyclic potassium channel inhibitors” (Merck & Co., Inc., priority 1999, dated 2001).
pIC50: −log10 of the molar value.

Molecular target: T1, Kv 1.3 channels (Homo sapiens, UniProt P22001)
T1 construct: expressed in transfected cells; host or cells: CHO cells
Details: margatoxin used at saturating concentration to establish the efflux window; read-out: IC50 (blocker of Kv 1.3 channels)

T1 sequence (P22001 whole entry): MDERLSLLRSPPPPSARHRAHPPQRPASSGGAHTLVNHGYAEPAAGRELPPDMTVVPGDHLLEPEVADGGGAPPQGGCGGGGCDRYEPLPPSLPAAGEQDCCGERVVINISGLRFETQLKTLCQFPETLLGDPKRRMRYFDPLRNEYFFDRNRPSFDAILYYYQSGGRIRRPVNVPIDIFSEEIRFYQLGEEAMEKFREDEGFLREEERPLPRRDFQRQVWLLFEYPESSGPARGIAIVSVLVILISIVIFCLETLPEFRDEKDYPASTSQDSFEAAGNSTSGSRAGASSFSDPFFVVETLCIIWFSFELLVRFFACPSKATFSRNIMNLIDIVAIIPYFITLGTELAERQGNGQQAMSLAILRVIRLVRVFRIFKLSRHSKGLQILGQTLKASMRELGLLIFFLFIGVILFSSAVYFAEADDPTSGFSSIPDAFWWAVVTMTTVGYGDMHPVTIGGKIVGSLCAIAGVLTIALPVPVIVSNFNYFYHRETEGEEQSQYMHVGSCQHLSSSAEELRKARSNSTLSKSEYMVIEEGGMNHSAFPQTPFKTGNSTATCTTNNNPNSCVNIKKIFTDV

Question: With “margatoxin (TIINVKCTSPKQCLPPCKAQFGQSAGAKCMNGKCKCYPH; UniProt P40755 1-39, looked up)” as the substance, how does the pIC50 read?
Answer: 10.00
